# Results taken from patent US20040052816A1 (Pfizer, published 2004).
# B1: recombinant 20 kDa surface associated protein from S. pneumoniae (Pneumo Protective Protein 1) (other)
# chain: MNEVKKMVELKKEAVKDVTSLTKAAPVALAKTKEVLNQAVADLYVAHVALHQVHWYMHGRGFLVWHPKMDEYMEALDGQLDEISERLITLGGSPFSTLTEFLQNSEIEEEAGEYRNVEESLERVLVIYRYLSELFQKGLDVTDEEGDDVTNGIFAGAKTETDKTIWMLAAELGQAPGL
# notes: also called r20 kDa; r20kDa
# Target: the molecule itself
# Assay: self-association: retained by a 100,000 MW cutoff membrane in diafiltration
protein,measurement,value
B1,binding result,binds
